Series [1] relates to RegA, Cu2+-stimulated disulfide-linked dimer (unphosphorylated) (Rhodobacter capsulatus). Briefly: DNase I footprinting. Particulars: 20 mM Tris-HCl pH 8.0, 2 mM MgCl2, 0.5 mM CaCl2, 0.1 mg/mL BSA, 50 nM DNA probe, 20 uL, 15 min at room temperature.
Series [2] concerns the molecule itself. Briefly: non-reducing SDS-PAGE; monomeric RegA loaded with Cu2+ by buffer exchange aerobically (20 mM Tris-HCl pH 8.0, 250 mM NaCl), run at once on a non-reducing gel without DTT; time course in air from one minute.

For ccoN promoter fragment (299 bp), the Kd in series [1] came out at 1000 nM.

B1: RegA (response regulator RegA of Rhodobacter capsulatus), wild type, tagless (natural protein, UniProt P42508 1-184, looked up)
chain: MAEEEFAELGSDRSLLLVDDDNAFLTRLARAMEKRGFQTEIAETVSAGKAIVQNRAPAYAVIDLRLEDGNGLEVVEALRERRPEARIVVLTGYGAIATAVAAVKMGATDYLSKPADANDITNALLAKGEALPPPPENPMSADRVRWEHIQRVYELCDRNVSETARRLNMHRRTLQRILAKRSPR
notes: RegA, response regulator of the RegB/RegA two-component system, Rhodobacter capsulatus; wild-type codon at residue 95 (made from the RegA* overexpression vector of Du et al. 1998); a single cysteine, Cys156, in the tryptic peptide VYELCDR; The dimer formed with Cu2+ and O2 is joined by an intermolecular disulfide bond between Cys156 of two chains; also called apo-RegA; RegA monomer
As for B1, in series [2], the “stoichiometry N” value worked out at 2.

The values above are taken from article PMC9147068, “The Response Regulator RegA Is a Copper Binding Protein That Covalently Dimerizes When Exposed to Oxygen” (Microorganisms, 2022).
